Measurements: US20220119534A1 (DRAGONFLY THERAPEUTICS, published 2022)
One block for each binder: values may come before it.

Legend:
[1] = target: T1, human CLEC12A on cells (HL60, PL21, Ba/F3-hCLEC12A) (human, UniProt Q5QGZ9 1-265); test: flow cytometry, Ba/F3-hCLEC12A cells
T1 construct: Endogenous on the AML lines HL60 and PL21; brought into mouse Ba/F3 cells by retroviral transduction; The cell line stands under assay; also called CLL-1
T1 sequence: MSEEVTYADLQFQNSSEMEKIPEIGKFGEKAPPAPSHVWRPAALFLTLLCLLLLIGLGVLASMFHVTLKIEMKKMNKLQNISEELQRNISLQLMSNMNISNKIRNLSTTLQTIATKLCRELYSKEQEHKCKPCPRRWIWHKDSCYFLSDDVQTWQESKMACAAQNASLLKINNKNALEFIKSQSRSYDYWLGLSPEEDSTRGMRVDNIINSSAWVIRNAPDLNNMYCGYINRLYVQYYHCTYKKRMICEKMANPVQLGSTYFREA

Human CLEC12A-His [2] = target: T2, Human CLEC12A-His (human, UniProt Q5QGZ9 65-265); test: SPR, untreated CLEC12A; average of 3 replicates
T2 construct: Recombinant soluble protein made in house; also called hCLEC12A-His; hCLEC12A; not shown: His tag
T2 sequence: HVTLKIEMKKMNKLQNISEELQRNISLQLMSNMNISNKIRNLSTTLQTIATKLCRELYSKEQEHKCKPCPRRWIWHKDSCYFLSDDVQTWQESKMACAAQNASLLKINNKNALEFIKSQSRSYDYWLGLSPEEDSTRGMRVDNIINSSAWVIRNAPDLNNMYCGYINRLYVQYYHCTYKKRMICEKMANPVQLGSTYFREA

Human CLEC12A-His [3] = target: T2, Human CLEC12A-His; test: SPR; sample after 4 weeks at 40 C in CST pH 7.0
mFc-hNKG2D [4] = target: T3, mFc-hNKG2D (human, UniProt P26718 73-216); test: SPR; sample after 4 weeks at 40 C in CST pH 7.0
T3 construct: extracellular domain; Recombinant mFc-tagged NKG2D dimer, made in house; also called human NKG2D; not shown: mouse Fc tag
T3 sequence (looked up): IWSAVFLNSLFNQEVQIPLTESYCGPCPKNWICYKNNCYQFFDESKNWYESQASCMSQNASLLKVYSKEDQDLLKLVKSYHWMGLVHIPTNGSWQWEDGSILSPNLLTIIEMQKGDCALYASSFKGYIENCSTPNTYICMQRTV

Human CD16a V158 = target: T4, Human CD16a V158 (human, UniProt P08637 17-208, biotinylated); test: SPR; sample after 4 weeks at 40 C in CST pH 7.0
T4 construct: Bought recombinant receptor; also called hCD16a (V158); hFcγRIIIa V158
T4 sequence (P08637 17-208 F176V limits assumed): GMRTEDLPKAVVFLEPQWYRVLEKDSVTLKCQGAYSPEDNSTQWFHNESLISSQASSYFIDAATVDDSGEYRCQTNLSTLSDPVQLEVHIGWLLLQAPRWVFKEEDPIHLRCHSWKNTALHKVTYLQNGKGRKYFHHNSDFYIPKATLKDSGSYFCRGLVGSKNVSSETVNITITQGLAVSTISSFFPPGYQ

Cynomolgus CD64 = target: T5, Cynomolgus CD64 (cynomolgus monkey, UniProt A0A2K5U901 33-309, Probably biotinylated for capture, as in the sister examples (p-1094).); test: SPR, cynomolgus CD64 captured; average for AB0192
T5 construct: Bought recombinant receptor; also called cFcγRI; Cynomolgus CD64 (FcγRI); not shown: The vendor's biotinylation and purification tag
T5 sequence (A0A2K5U901 entry or part of it limits assumed): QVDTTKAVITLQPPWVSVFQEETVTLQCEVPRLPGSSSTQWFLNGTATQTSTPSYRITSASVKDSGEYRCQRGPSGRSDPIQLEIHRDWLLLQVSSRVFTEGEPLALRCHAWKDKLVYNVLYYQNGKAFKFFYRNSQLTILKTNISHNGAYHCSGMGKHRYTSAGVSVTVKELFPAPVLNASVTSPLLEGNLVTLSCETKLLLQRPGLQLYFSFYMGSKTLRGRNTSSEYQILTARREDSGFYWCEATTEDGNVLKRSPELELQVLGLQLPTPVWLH

mFc-hNKG2D [5] = target: T3, mFc-hNKG2D; test: SPR, 37 C, mFc-hNKG2D captured, steady state fit; average
[6] = target: T6, mFc-hNKG2D (recombinant mFc-tagged human NKG2D dimer) (human, UniProt P26718 73-216); test: SPR; control sample
T6 construct: extracellular domain; Made in house; not shown: mouse Fc tag
T6 sequence (looked up): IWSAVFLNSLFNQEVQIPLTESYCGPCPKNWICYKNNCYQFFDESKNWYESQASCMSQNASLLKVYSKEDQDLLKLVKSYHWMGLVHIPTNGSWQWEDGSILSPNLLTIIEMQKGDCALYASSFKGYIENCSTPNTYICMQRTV

[7] = target: T7, Human CD16a V158 (FcγRIIIa V158) (human, UniProt P08637 17-208, biotinylated); test: SPR; control sample
T7 construct: Bought recombinant receptor; also called hCD16aV; hFcγRIIIa V158
T7 sequence (P08637 17-208 F176V limits assumed): as the sequence (P08637 17-208 F176V limits assumed) above

[8] = target: T8, Human CLEC12A-His (recombinant, K244 WT) (human, UniProt Q5QGZ9 65-265); test: SPR, two-state fit (ka1); after pH 8, 40C, 2 wks
T8 construct: Made in house (Dragonfly Tx); also called hCLEC12A; hCLEC12A-His; not shown: His tag
T8 sequence: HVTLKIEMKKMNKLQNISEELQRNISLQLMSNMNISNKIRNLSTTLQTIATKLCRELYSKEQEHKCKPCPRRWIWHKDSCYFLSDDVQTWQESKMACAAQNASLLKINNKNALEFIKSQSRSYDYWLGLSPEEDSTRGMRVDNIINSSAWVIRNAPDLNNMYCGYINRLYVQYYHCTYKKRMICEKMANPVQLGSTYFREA

[9] = target: T8, Human CLEC12A-His (recombinant, K244 WT); test: SPR, two-state fit; after 4 wks 40C in HST pH 6.0

EC50 [1]: 1.33 nM
FOB (fold over background) [1]: 325 fold
Kd (Human CLEC12A-His [2]): 1.65 nM
koff (Human CLEC12A-His [2]): 0.00115 s⁻¹
kon (Human CLEC12A-His [2]): 698000 M⁻¹ s⁻¹
Kd (Human CLEC12A-His [3]): 1.96 nM
koff (Human CLEC12A-His [3]): 0.00147 s⁻¹
kon (Human CLEC12A-His [3]): 749000 M⁻¹ s⁻¹
Kd (mFc-hNKG2D [4]): 653 nM
koff (mFc-hNKG2D [4]): 0.121 s⁻¹
kon (mFc-hNKG2D [4]): 185000 M⁻¹ s⁻¹
Kd (Human CD16a V158): 174 nM
koff (Human CD16a V158): 0.0194 s⁻¹
kon (Human CD16a V158): 111000 M⁻¹ s⁻¹
Kd (Cynomolgus CD64): 1.9 nM
koff (Cynomolgus CD64): 0.00012 s⁻¹
kon (Cynomolgus CD64): 62000 M⁻¹ s⁻¹
Kd (mFc-hNKG2D [5]): 781 nM
B1: AB0192 TriNKET (other)
chain: EVQLVESGGGVVQPGGSLRLSCAASGFTFNAFGMHWVRQAPGKCLEWVAFISSGSTSIYYANTVKGRFTISRDNSKNTLYLQMNSLRAEDTAVYYCARDGYPTGGAMDYWGQGTSVTVSSGGGGSGGGGSGGGGSGGGGSDIQMTQSPSSLSASVGDRVTITCKASQDIYNYLSWFQQKPGKAPKPLIYRANILVSGVPSRFSGSGSGQDYTFTISSLQPEDIATYYCLQFDAFPFTFGCGTKLEIKGSDKTHTCPPCPAPELLGGPSVFLFPPKPKDTLMISRTPEVTCVVVDVSHEDPEVKFNWYVDGVEVHNAKTKPREEQYNSTYRVVSVLTVLHQDWLNGKEYKCKVSNKALPAPIEKTISKAKGQPREPRVYTLPPCRDELTKNQVSLTCLVKGFYPSDIAVEWESNGQPENNYKTTPPVLVSDGSFTLYSKLTVDKSRWQQGNVFSCSVMHEALHNHYTQKSLSLSPG
heavy: EVQLVESGGGLVKPGGSLRLSCAASGFTFSSYSMNWVRQAPGKGLEWVSSISSSSSYIYYADSVKGRFTISRDNAKNSLYLQMNSLRAEDTAVYYCARGAPIGAAAGWFDPWGQGTLVTVSSASTKGPSVFPLAPSSKSTSGGTAALGCLVKDYFPEPVTVSWNSGALTSGVHTFPAVLQSSGLYSLSSVVTVPSSSLGTQTYICNVNHKPSNTKVDKKVEPKSCDKTHTCPPCPAPELLGGPSVFLFPPKPKDTLMISRTPEVTCVVVDVSHEDPEVKFNWYVDGVEVHNAKTKPREEQYNSTYRVVSVLTVLHQDWLNGKEYKCKVSNKALPAPIEKTISKAKGQPREPQVCTLPPSRDELTENQVSLTCLVKGFYPSDIAVEWESNGQPENNYKTTPPVLDSDGSFFLYSWLTVDKSRWQQGNVFSCSVMHEALHNHYTQKSLSLSPG
light: DIQMTQSPSSVSASVGDRVTITCRASQGISSWLAWYQQKPGKAPKLLIYAASSLQSGVPSRFSGSGSGTDFTLTISSLQPEDFATYYCQQGVSFPRTFGGGTKVEIKRTVAAPSVFIFPPSDEQLKSGTASVVCLLNNFYPREAKVQWKVDNALQSGNSQESVTEQDSKDSTYSLSSTLTLSKADYEKHKVYACEVTHQGLSSPVTKSFNRGEC
notes: the condition stands under assay; also called AB0192 Lot AB0192-005

Kd [6]: 797 nM
koff [6]: 0.135 s⁻¹
kon [6]: 169000 M⁻¹ s⁻¹
Kd [7]: 322 nM
koff [7]: 0.0278 s⁻¹
kon [7]: 86400 M⁻¹ s⁻¹
kon [8]: 9.93e+06 M⁻¹ s⁻¹
Kd [9]: 1 nM
B2: AB0089 TriNKET (bispecific antibody, human IgG1, kappa)
chain: QLQLQESGPGLVKPSETLSLTCTVSGFSLTNYGLHWIRQPPGKCLEWIGVIWVGGATDYNPSLKSRVTISVDTSKNQFSLKLSSVQAADTAVYYCAKGDYGDTLDYWGQGTLVTVSSGGGGSGGGGSGGGGSGGGGSDIQMTQSPSSLSASVGDRVTITCHASQNINFWLSWYQQKPGKAPKLLIYEASNLHTGVPSRFSGSGSGTDFTLTISSLQPEDFATYYCQQSHSYPLTFGCGTKLEIKGSDKTHTCPPCPAPELLGGPSVFLFPPKPKDTLMISRTPEVTCVVVDVSHEDPEVKFNWYVDGVEVHNAKTKPREEQYNSTYRVVSVLTVLHQDWLNGKEYKCKVSNKALPAPIEKTISKAKGQPREPRVYTLPPCRDELTKNQVSLTCLVKGFYPSDIAVEWESNGQPENNYKTTPPVLVSDGSFTLYSKLTVDKSRWQQGNVFSCSVMHEALHNHYTQKSLSLSPG
heavy: EVQLVESGGGLVKPGGSLRLSCAASGFTFSSYSMNWVRQAPGKGLEWVSSISSSSSYIYYADSVKGRFTISRDNAKNSLYLQMNSLRAEDTAVYYCARGAPIGAAAGWFDPWGQGTLVTVSSASTKGPSVFPLAPSSKSTSGGTAALGCLVKDYFPEPVTVSWNSGALTSGVHTFPAVLQSSGLYSLSSVVTVPSSSLGTQTYICNVNHKPSNTKVDKKVEPKSCDKTHTCPPCPAPELLGGPSVFLFPPKPKDTLMISRTPEVTCVVVDVSHEDPEVKFNWYVDGVEVHNAKTKPREEQYNSTYRVVSVLTVLHQDWLNGKEYKCKVSNKALPAPIEKTISKAKGQPREPQVCTLPPSRDELTENQVSLTCLVKGFYPSDIAVEWESNGQPENNYKTTPPVLDSDGSFFLYSWLTVDKSRWQQGNVFSCSVMHEALHNHYTQKSLSLSPG
light: DIQMTQSPSSVSASVGDRVTITCRASQGISSWLAWYQQKPGKAPKLLIYAASSLQSGVPSRFSGSGSGTDFTLTISSLQPEDFATYYCQQGVSFPRTFGGGTKVEIKRTVAAPSVFIFPPSDEQLKSGTASVVCLLNNFYPREAKVQWKVDNALQSGNSQESVTEQDSKDSTYSLSSTLTLSKADYEKHKVYACEVTHQGLSSPVTKSFNRGEC
notes: F3' format heterodimer of three chains; human IgG1 Fc with EW-RVT and Y349C/S354C mutations; also called AB0089 Lot AB0089-002; CLEC12A TriNKET AB0089
